The values below come from publication PMC7060329, “Pathway-specific enzymes from bamboo and crop leaves biosynthesize anti-nociceptive C-glycosylated flavones” (Communications Biology, 2020).

Data set [1] has as its target T1, SbF2H (CYP93G3; SbCYP93G3) (Sorghum bicolor, UniProt C5X6I4).
T1 construct: gene SORBI_3002G000400; N-terminal transmembrane region cut (borders not in text) and replaced with 2B1dH tag; codon-optimized; in E. coli with AtCPR2
T1 sequence (C5X6I4 42-541 limits assumed): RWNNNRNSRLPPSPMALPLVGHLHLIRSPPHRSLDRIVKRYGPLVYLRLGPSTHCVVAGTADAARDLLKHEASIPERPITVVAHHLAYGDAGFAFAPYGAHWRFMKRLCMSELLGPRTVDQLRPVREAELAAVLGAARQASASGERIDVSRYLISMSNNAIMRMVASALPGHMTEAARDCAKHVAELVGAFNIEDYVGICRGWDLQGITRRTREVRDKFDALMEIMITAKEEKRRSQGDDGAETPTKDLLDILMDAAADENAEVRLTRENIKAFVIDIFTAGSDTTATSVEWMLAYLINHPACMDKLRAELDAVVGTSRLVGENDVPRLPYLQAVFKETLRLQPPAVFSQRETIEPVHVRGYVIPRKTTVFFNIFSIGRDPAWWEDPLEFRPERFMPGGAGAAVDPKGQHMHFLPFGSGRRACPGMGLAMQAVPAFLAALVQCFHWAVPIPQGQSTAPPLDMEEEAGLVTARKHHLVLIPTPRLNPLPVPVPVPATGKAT
As to the kind of experiment: E. coli whole-cell conversion, LC-MS of downstream vitexin/isovitexin. The following applies: coexpressed AtCPR2 and PhUGT708A43; naringenin made in vivo, 22 °C. Format: cell-based.

Substrate in data set [2]: O=C1CC(O)(c2ccc(O)cc2)Oc2cc(O)cc(O)c21
Kind of data set: HPLC of C-glucoside product, Michaelis-Menten fit. The following applies: 400 μM UDP-glucose, 100 mM NaCl, 20 mM Tris-HCl pH 8.0, 37 °C, 20 min. Format: biochemical, Phyllostachys edulis.

Substrate in data set [3]: O=C(CCc1ccc(O)cc1)c1c(O)cc(O)cc1O
Kind of data set: HPLC of C-glucoside product, Michaelis-Menten fit. Format: biochemical, Phyllostachys edulis. The conditions noted are these: 400 μM UDP-glucose, 100 mM NaCl, 20 mM Tris-HCl pH 8.0, 37 °C, 20 min.

On to `O=C1C[C@@H](c2ccc(O)cc2)Oc2cc(O)cc(O)c21` [Nar, naringenin], for which, in data set [1], the “E. coli whole-cell conversion, LC-MS of downstream vitexin/isovitexin” value is “truncated ZmF2H/AtCPR2 (sCZ2) and truncated SbF2H/AtCPR2 (sCZ29)”.

B1: PhUGT708A43 (PhCGT1) (Phyllostachys edulis) (protein)
chain: MPTSGGRTGDRPHVILLPSAGMGHLVPFSRLAVALSSGHGCDVSVVAVLPTVSAAESRHLQGLLDASPAVRRLDLHLAPFDESEFPGADPFFLRFEAMRRSAPLLGPLLADTGASALVTDIALASVVIPVAKEIHLPCYVLFTASAAMLSFCAYFPTYLDTNAGRVVGDVDIPGVYRIPKASIPQALHDPNHLFTRQFVANGQDLAKADGVLVNTFDALELEAVTALRQGSVAAGFPPVFSVGPLVTVNLPAGEAAKESGNDYMYWLDAQPAQSVVYVSFGSRKAISRDQVRELAIGLEASGQPFLWVVKSTVVDRDDSAELSELLGEGFLERVQGQGFVTKAWVEQEEVLKHESIGLFISHCGWNSVTEAAASGVPVLAWPRFGDQRVNAGVVARGGLGVWVERWSWEGEEDVVSGEEIAEKVKAVMADETVRKKAASVGEAAVKEFADGGTSYRSLTEFVRRCRDLAVLD
notes: full-length ORF, pET28a (pCZ86), recombinant from E. coli, purified
As for B1, the Km worked out at 1.75 ± 0.66 µM in data set [2] and 15.83 ± 6.98 µM in data set [3].

The term Km denotes the substrate concentration at which the rate is half of its maximum.
